Measurements published in PMC7790415, “Loss of endocytosis-associated RabGEF1 causes aberrant morphogenesis and altered autophagy in photoreceptors leading to retinal degeneration” (PLoS Genetics, 2020).
Values joined by “and” are separate entries in the source; they are usually repeats but may differ in a detail not shown here. Equal values may be shown once.

Target: T1, RabGEF1 (mouse (endogenous in retina), UniProt Q9JM13 1-491)
T1 construct: RabGEF1 (Rabex-5), mouse, endogenous protein of retinal extracts, immunoprecipitated with anti-RabGEF1 antibody; Endogenous protein; also called Rabex-5; Rabex5; source: endogenous, mouse retina extract (control retina)
Test: affinity purification with mass spectrometry; anti-RabGEF1 and IgG immunoprecipitates from control and Rabgef1-/- mouse retinal lysates; trypsin digest, LC-MS on Orbitrap Lumos (n = 2)
Conditions: partners not purified

T1 sequence (Q9JM13 whole entry): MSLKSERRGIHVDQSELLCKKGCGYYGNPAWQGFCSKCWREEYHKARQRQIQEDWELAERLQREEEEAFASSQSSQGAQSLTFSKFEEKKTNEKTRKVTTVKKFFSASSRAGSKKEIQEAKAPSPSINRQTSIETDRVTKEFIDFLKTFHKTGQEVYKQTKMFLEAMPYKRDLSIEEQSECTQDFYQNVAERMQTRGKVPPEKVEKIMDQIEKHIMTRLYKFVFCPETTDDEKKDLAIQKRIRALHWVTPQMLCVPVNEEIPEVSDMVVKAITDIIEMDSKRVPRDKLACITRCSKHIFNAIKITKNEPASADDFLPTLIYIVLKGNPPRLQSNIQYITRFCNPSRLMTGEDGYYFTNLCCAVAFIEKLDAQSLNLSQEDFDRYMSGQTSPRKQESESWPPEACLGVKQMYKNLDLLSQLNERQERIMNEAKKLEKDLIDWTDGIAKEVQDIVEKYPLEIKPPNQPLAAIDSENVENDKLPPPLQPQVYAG

B1: Rabaptin-5 (natural protein, mouse (endogenous in retina), UniProt O35551 1-862, looked up)
chain: MAQPGPAPQPDVSLQQRVAELEKINAEFLRAQQQLEQEFNQKRAKFKELYLAKEEDLKRQNAVLQAAQDDLGHLRTQLWEAQAEMENIKAIATVSENTKQEAIDEVKRQWREEVASLQAIMKETVRDYEHQFHLRLEQERAQWAQYRESAEREIADLRRRLSEGQEEENLENEMKKAQEDAEKLRSVVMPMEKEIAALKDKLTEAEDKIKELEASKVKELNHYLEAEKSCRTDLEMYVAVLNTQKSVLQEDAEKLRKELHEVCHLLEQERQQHNQLKHTWQKANDQFLESQRLLMRDMQRMEIVLTSEQLRQVEELKKKDQEEDEQQRVNKRKDNKKTDTEEEVKIPVVCALTQEESSTPLSNEEEHLDSTHGSVHSLDADLMLPSGDPFSKSDNDMFKDGLRRAQSTDSLGTSSSLQSKALGYNYKAKSAGNLDESDFGPLVGADSVSENFDTVSLGSLQMPSGFMLTKDQERAIKAMTPEQEETASLLSSVTQGMESAYVSPSGYRLVSETEWNLLQKEVHNAGNKLGRRCDMCSNYEKQLQGIQIQEAETRDQVKKLQLMLRQANDQLEKTMKEKQELEDFLKQSAEDSSHQISALVLRAQASEVLLEELQQSFSQAKRDVQEQMAVLMQSREQVSEELVRLQKDNDSLQGKHSLHVSLQLAEDFILPDTVEVLRELVLKYRENIVHVRTAADHMEEKLKAEILFLKEQIQAEQCLKENLEETLQLEIENCKEEIASISSLKAELERIKVEKGQLESTLREKSQQLESLQEMKVNLEEQLKKETAAKATVEQLMFEEKNKAQRLQTELDVSEQVQRDFVKLSQTLQVQLERIRQADSLERIRAILNDTKLTDINQLPET
notes: Rabaptin-5 (also known as Rabep1), mouse, endogenous protein of retinal extracts; Endogenous protein; also called Rabep1; source: endogenous, mouse retina extract (control retina)
  stoichiometry N: 0.5 Rabaptin-5 per RabGEF1 (printed as RabGEF1:Rabaptin-5 2:1) and 2 Rabaptin-5 per RabGEF1 (printed as RabGEF1:Rabaptin-5 1:2)
